The results in this text go back to PMC7544158 (Nature structural & molecular biology, 2020).

Like-named read-outs stand apart in the source and are kept apart here. Where no end group is shown, it is not given here. The star is where a group is joined. FITC = O=C1OC2(c3ccc(O)cc3Oc3cc(O)ccc32)c2ccc(NC(=S)*)cc21

What all share (test): fluorescence polarisation
A general note: Fluorescence polarisation rises when a labelled molecule tumbles more slowly, as on binding a larger partner.

The target of assay [1] is T1, BFL-1ΔC C55 (N-His6 BFL-1ΔC (1–151) bearing C4S/C19S mutations) (human, UniProt Q16548 1-151, C4S | C19S).
T1 sequence (looked up): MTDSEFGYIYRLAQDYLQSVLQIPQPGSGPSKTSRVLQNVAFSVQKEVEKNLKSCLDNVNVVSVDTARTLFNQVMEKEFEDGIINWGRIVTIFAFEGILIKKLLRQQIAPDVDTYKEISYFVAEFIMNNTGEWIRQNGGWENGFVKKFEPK

Assay [2] deals with T1, BFL-1ΔC C55 (N-His6 BFL-1ΔC (1–151) …). The source holds these as a separate data set.
The target is the same in assay [3]. The source holds these as a separate data set.
Assay [4] has the same target. The source holds these as a separate data set.
For assay [5] the target is unchanged. The source holds these as a separate data set.

For orientation: Kd means a measure of binding affinity in units of concentration. A high value points to a looser complex. In the case of {FITC}-DIIRNIARHLAQVGDSMDRSI [FITC-BID BH3 peptide], the Kd in assay [1] was found to be 18.4 nM; in assay [2], 12.3 nM; in assay [3] it was 3.3 nM; in assay [4], 1.6 nM; in assay [5] it was 24.3 nM.
